Drawing on article PMC6078952, this text covers Kd, koff and kon for one molecule.

For the experiment, the target named is Anastellin. Kind of experiment: BLI; Octet RED96, anastellin (100 µg/ml) covalently coupled to AR2G biosensors via amine groups, sensors dipped into LOX-PP solutions for 3 min in HBS-P20; 1:1 model.

B1: recombinant human propeptide of lysyl oxidase (LOX-PP) (domain or fragment)
chain: APLAAGQQQPPREPPAAPGAWRQQIQWENNGQVFSLLSLGSQYQPQRRRDPGAAVPGAANASAQQPRTPILLIRDNRTAAARTRTAGSSGVTAGRPRPTARHWFQAGYSTSRAREAGASRAENQTAPGEVPALSNLRPPSRVDGMVG
modifications: N-linked oligosaccharides (removed by PNGase F, about 13 kDa; three glycosylated asparagine residues: N81, N97, N144)
B1 showed a Kd of 152 nM, a dissociation rate constant (koff) of 0.000445 s⁻¹ and a kon of 2930 M⁻¹ s⁻¹.
